Experimental findings from article doi:10.1101/2021.04.07.438849 (bioRxiv, 2021) are described below.

This assay deals with T1, NTD of the SARS-CoV-2 spike protein (SARS-CoV-2 Wuhan-Hu-1, UniProt P0DTC2).
T1 construct: also called N-terminal domain
The experiment in a line: ELISA. The conditions noted are these: both partners purified.

B1: 8–131 (antibody, V domains shown)
VH: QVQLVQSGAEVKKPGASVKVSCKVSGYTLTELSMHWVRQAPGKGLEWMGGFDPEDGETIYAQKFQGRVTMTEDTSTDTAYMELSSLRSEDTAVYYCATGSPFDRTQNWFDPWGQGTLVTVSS
VL: QSVVTQPPSVSAAPGQKVTISCSGSRSNIGNNYVSWYQQLPGTAPKLLIYDYDKRPSGIPDRFSGSKSGTSATLGITGLQTGDEADYYCGTWDNSLSAGVFGGGTRLTVL
As for B1, the binding result is listed as “binds”.
